The values that follow come from US10442866 (BEIJING MABWORKS BIOTECH, dated 2019).

Where a chain is given by its changes, count along the chain named.

Test [1] concerns the target T1, recombinant human OX40-his (Sino Biological, Cat#:10481-H03H) (human, UniProt P43489 29-214).
T1 construct: bought protein; also called hOX40-his; not shown: His tag
T1 sequence: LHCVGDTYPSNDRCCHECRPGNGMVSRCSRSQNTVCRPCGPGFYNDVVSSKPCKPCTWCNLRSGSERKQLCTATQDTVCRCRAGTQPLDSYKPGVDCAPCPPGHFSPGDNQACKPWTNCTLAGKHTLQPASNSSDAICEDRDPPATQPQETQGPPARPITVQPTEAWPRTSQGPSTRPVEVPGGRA
The test can be described thus: SPR Biacore 8K, OX40-His on chip, antibody injected. Here is the method:
SPR assays were used to determine the binding affinity of the chimetic or humanized anti-OX40 antibodies to human OX40 with the BIAcore™ 8K instrument (GE Life Sciences). Briefly, 100-200 response units (RU) of human OX40-His protein (Sino Biological, CN, Cat#:10481-H03H, Lot no.: MA08MA3003) were coupled to CM5 biosensor chips (Cat#: BR-1005-30, GE Life Sciences), followed by blocking of un-reacted groups with 1M ethanolamine. Serially diluted antibodies at concentrations ranging from 0.3 µM to 10 µM were injected into the SPR running buffer (HBS-EP buffer, pH7.4, GE Life Sciences; US; Cat#:BR-1006-69) at 30 µL/minute. The binding capacitity was calculated with the RUs of blank controls subtracted. The association rate (k_a) and dissociation rate (k_d) were calculated using the one-to-one Langmuir binding model (BIA Evaluation Software, GE Life Sciences). The equilibrium dissociation constant K_D was calculated as the k_d/k_a ratio.

Test [2] deals with T2, rhesus OX40 expressed on HEK293A cells (rhesus, UniProt P43489 29-277 (human entry)).
T2 construct: also called HEK293A/rhOX40; HEK293A/rhesusOX40 cells
T2 chain: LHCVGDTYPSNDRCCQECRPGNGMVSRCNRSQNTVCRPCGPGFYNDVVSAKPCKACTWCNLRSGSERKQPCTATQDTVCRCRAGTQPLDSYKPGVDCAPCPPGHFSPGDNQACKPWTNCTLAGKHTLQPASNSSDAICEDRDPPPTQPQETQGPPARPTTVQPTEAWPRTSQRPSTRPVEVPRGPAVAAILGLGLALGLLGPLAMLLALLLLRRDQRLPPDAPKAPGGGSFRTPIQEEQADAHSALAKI
The test can be described thus: FACS on HEK293A/rhesus OX40 cells, MFI (panel without title; monkey OX40 by the legend). Here is the method:
Briefly, 10^5 HEK293A cells were seeded into each well of the 96-well plates and serially diluted anti-OX40 antibodies were added to the plates. After incubated at 4° C. for 1 hour, plates were washed 3 times with PBST. Then, an APC coupled Goat Anti-Mouse IgG (BioLegen, US, Cat#: 405308) diluted 500× was added to the plates. After incubation at 4° C. for 1 hour, the plates were washed with PBS for 3 times and then cell fluorescence was monitored using a FACS machine (BD).
Example 15 Humanized Anti-OX40 Antibodies Bound to Human or Rhesus OX40 Expressed on HEK293A Cells The humanized anti-OX40 antibodies were also tested for their ability of binding to HEK293A/huOX40 cells or HEK293A/rhOX40 cells, following the FACS analysis protocol as described in Example 5.

In test [3] the target is T3, recombinant rhesus OX40-his (Sino Biological, Cat#:90846-C08H) (rhesus monkey, UniProt P43489 29-214 (human entry)).
T3 construct: bought protein; also called monkey OX40-his; rhOX40-his; not shown: His tag
T3 chain: T1 sequence with H16Q, S29N, S50A, P55A, L70P, A145P, I159T, G173R, G183R, R185P
The test can be described thus: ELISA on coated rhesus OX40-His, OD450.

Test [4] has as its target T1, recombinant human OX40-his (Sino …). The test can be described thus: ELISA on coated human OX40-His, OD450. (In an ELISA, binding on a coated surface is turned into a signal by an enzyme label.)
For test [5], the target named is T4, murine OX40-His (Crown, Cat#: E3350-B1707) (mouse, UniProt P47741 20-211).
T4 construct: bought protein; also called mouse OX40-his; muOX40-his; not shown: His tag
T4 sequence: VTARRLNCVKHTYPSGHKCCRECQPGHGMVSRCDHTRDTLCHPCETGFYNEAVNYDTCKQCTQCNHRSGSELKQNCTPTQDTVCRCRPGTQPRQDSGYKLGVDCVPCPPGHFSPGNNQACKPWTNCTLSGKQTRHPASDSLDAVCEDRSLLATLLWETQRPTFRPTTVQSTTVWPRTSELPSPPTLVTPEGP
In words: ELISA.

B1: 71H8-VH3VL2 (antibody, human IgG1, kappa, V domains shown)
VH: QVQLVQSGAEVKKPGASVKVSCKVSGYTFTSYWITWVRQRPGQGLEWIGDIYPGSGSTNQNEKFKSRVTLTVDTSTDTAYMELSSLRSEDTAVYYCATLRPYYFVYWGQGTLVTVSS
VL: DIQMTQSPSSLSASVGDRVTITCRASQDISNYLNWYQQKPGKTPKLLIYYTSRLLSGVPSRFSGSGSGTDYTLTISSLQPEDFATYYCQQGNTLPLTFGQGTRLEIKR
notes: humanized; also called 71H8-H3L2
For B1, in test [1], the Kd came to 37.2 nM, the koff was found to be 0.00871 s⁻¹ and the kon came out at 234000 M⁻¹ s⁻¹. In test [2], the binding result is “binds”. For the same molecule, the “EC50 (read off the curve)” value in test [3] is around 3 ng/mL. Moreover, the half-maximal effective concentration (EC50 (read off the curve)) in test [4] is around 3 ng/mL. Besides, the binding result in test [5] was “no binding”.

Usually Kd stands for the concentration at which binding is half-saturated. Broadly, the koff is a measure of how fast the partners let go of each other. By kon is commonly meant the second-order rate constant of association. As usually defined, the EC50 (read off the curve) is the concentration that produces a half-maximal response.
